Laboratory results published in patent publication US20260035478A1 (TENEOBIO, published 2026).
Substitutions are numbered along the chain they refer to.

B1: anti-MSLN single domain antibody clone 394908 (VHH)
VHH: EVQLLESGGGLIQPGGSLRLSCAASGFSFSSYAMSWVRQAPGKGLEWVSNISGSGDSTYYADSVKGRFTISRDNSKNTLYLQMNSLRAEDTAVYYCAKPPSYYDFLSDPDYWGQGTLVTVSS
notes: Human VH single domain
B2: anti-MSLN single domain antibody clone 394940 (VHH)
VHH: B1 VHH with I12V, N50S, G53S, K98R
notes: Human VH single domain ('heavy chain antibody variable domain')
B3: anti-MSLN single domain antibody clone 392774 (VHH)
VHH: B1 VHH with I12V, S28T, S35T, N50A, S52T, Y80F, N84S, A88G
notes: Human VH single domain
B4: anti-MSLN single domain antibody clone 394955 (VHH)
VHH: B1 VHH with I12V, S28T, N50S, G53S
notes: Human VH single domain; tested as antibody-containing supernatant
B5: anti-MSLN single domain antibody clone 394910 (VHH)
VHH: B1 VHH with I12V, N50S, G53S
notes: as for B4
B6: anti-MSLN single domain antibody clone 394947 (VHH)
VHH: B1 VHH with N50S, G53S, N84K
notes: as for B4
B7: anti-MSLN single domain antibody clone 394905 (VHH)
VHH: B1 VHH with I12G, S28T, A33P, N50S, G53S
notes: as for B4
B8: anti-MSLN single domain antibody clone 394925 (VHH)
VHH: B1 VHH with N50A, G53S
notes: as for B4
B9: anti-MSLN single domain antibody clone 394966 (VHH)
VHH: B1 VHH with I12G, S28T, A33P, N50A
notes: as for B4
B10: anti-MSLN single domain antibody clone 394991 (VHH)
VHH: B1 VHH with I12V, S28T, S35N, N50S, G53S, D56G, K98R
notes: as for B4
B11: anti-MSLN single domain antibody clone 394972 (VHH)
VHH: B1 VHH with I12V, S28T, N50A, G53S
notes: as for B4
B12: anti-MSLN single domain antibody clone 394901 (VHH)
VHH: B1 VHH with N50S, G53S
notes: as for B4
B13: anti-MSLN single domain antibody clone 394971 (VHH)
VHH: B1 VHH with N50Y
notes: as for B4
B14: anti-MSLN single domain antibody clone 394907 (VHH)
VHH: B1 VHH with S28T, N50S, G53S
notes: as for B4
B15: anti-MSLN single domain antibody clone 394912 (VHH)
VHH: B1 VHH with N50S, G53S, S57G
notes: as for B4
B16: anti-MSLN single domain antibody clone 394979 (VHH)
VHH: EVQLLESGGGVVQPGRSLRLSCAASGFTFSSYDMHWVRQAPGKGLEWVAVISYDGSKKYSADSVKGRFTISRDNSKNTLYLQMNSLRAEDTAVYYCAKPPSYYDFLSDPDYWGQGTLVTVSS
notes: as for B4
B17: anti-MSLN single domain antibody clone 394985 (VHH)
VHH: B1 VHH with I12V, S28T, N50A, S52T, Y80F, N84S, A88G
notes: as for B4
B18: anti-MSLN single domain antibody clone 394982 (VHH)
VHH: B1 VHH with I12V, S28T, S30T, N50S, G53S
notes: as for B4
B19: anti-MSLN single domain antibody clone 394921 (VHH)
VHH: B1 VHH with I12V, S28T
notes: as for B4
B20: anti-MSLN single domain antibody clone 394930 (VHH)
VHH: B1 VHH with N50S, G53S, K98R
notes: as for B4

These binders were tested against T1, human mesothelin (MSLN) on cells (human, UniProt Q13421 296-598) (assay: flow cytometry dose curve, CHO cells expressing human MSLN).
T1 construct: whole, on cells; One molecule is used for human MSLN on transfected CHO cells and on HeLa cells; the cell line is named under assay; also called huMSLN
Method: (§1) Cell-binding dose curves for example anti-MSLN single domain antibodies described herein were generated using CHO cells expressing human MSLN (FIG. 1A), Hela cells (FIG. 1B), and CHO-OFFtgt cells (FIG. 1C). The single domain antibodies were tested at a starting concentration of 150 nM, followed by 3-fold serial dilutions for an 8-point dose curve. All washes and dilutions of cells, antibodies, and reagents were performed using flow buffer (1× phosphate buffered saline (PBS), 1% bovine serum albumin (BSA), and 0.1% NaN₃). Cells were pelleted and resuspended at 1×10⁶ cells/mL in flow buffer. Then, 50 μL cells were combined with 50 μL of test antibody and incubated 30 minutes at 4° C., followed by two wash steps with flow buffer. Cells were then resuspended in 50 μL PE-conjugated secondary diluted to 1.25 μg/mL (Southern Biotech #2042-09) and incubated for 20 minutes at 4° C. After two wash steps, cells were resuspended in flow buffer and analyzed using a BD Celesta system. PE mean fluorescence intensity was plotted as a fold over background (cells incubated with secondary detection antibody only).
To determine cell binding EC50 values for example anti-MSLN single domain antibodies of the present disclosure, cell binding dose curves were generated using Hela cells and CHO cells expressing human MSLN. The single domain antibodies were tested at a starting dose of 150 nM, followed by 3-fold serial dilutions for an 8-point dose curve as described in Example 2. The transformed data were plotted as an xy-graph using the non-linear regression curve fit (available in GraphPad Prism 8.4.3) to obtain the EC50 values (nM), which are summarized in Table E2.

T1 sequence (Q13421 other isoform, or with tags, fused parts or gaps limits assumed): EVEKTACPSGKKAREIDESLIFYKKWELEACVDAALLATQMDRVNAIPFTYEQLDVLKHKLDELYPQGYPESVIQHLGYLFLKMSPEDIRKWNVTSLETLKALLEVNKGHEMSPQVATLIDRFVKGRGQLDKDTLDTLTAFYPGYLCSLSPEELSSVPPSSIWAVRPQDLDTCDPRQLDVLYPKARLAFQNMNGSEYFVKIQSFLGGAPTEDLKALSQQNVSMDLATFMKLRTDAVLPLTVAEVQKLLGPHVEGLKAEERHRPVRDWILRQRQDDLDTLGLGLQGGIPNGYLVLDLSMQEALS

EC50 [nM] | Binder
71.1 | B1
6.5 | B2
7.2 | B3

These binders were tested against T2, recombinant human MSLN (R&D Systems, #3265-MS) (human, UniProt Q13421 296-580, limits assumed) (assay: BLI (Octet HTX), antibody on AHC sensors, antigen in solution, 1:1 model).
T2 construct: Bought reagent; It was loaded on Ni-NTA sensors for the binning, so it apparently carries a His tag; also called antigen
Method: Table E3 summarizes affinity and epitope bin information for example anti-MSLN single domain antibodies of the present disclosure. The affinity of each single domain antibody to recombinant human MSLN (R&D Systems, #3265-MS) was measured by Bio-layer interferometry (BLI) using an Octet HTX. AHC (Anti-hIgG Fc Capture) sensors were used to immobilize test antibody at 5 μg/mL. After baseline readings, sensors were dipped into antigen solutions (starting at 500 nM followed by a 7-point, 2-fold dilution series). Association and dissociation were measured for 180 and 240 seconds respectively. Data were analyzed with Octet Data Analysis v11.0 HT (ForteBio) using a standard 1:1 binding model. Epitope bins for the single domain antibodies were determined by an in-tandem competition BLI binding experiment using an Octet HTX. The antigen (5 μg/mL) was loaded on the sensor Ni-NTA sensor followed by a baseline in kinetic buffer. The antigen-coated sensor was then dipped into a saturating concentration Antibody 1. A second baseline was now set for 300 seconds. Then the antigen-antibody 1 complex was dipped into Antibody 2 solution for 180 seconds and then allowed to dissociate.

T2 sequence (Q13421 other isoform, or with tags, fused parts or gaps limits assumed): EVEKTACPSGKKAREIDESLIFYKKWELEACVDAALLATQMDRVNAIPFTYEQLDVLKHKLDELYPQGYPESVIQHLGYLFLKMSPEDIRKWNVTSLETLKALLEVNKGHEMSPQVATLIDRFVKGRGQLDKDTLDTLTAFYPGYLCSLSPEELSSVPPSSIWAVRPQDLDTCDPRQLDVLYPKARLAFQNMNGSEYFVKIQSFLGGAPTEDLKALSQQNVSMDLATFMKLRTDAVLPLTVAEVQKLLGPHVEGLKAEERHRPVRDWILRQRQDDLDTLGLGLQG

Kd [nM] | Binder
64.6 | B1
21 | B2
185 | B3

What follows are binders tested against T1, human mesothelin (MSLN) on cells (assay: flow cytometry dose curve, HeLa cells).
Method: as §1
To determine cell binding EC50 values for example anti-MSLN single domain antibodies of the present disclosure, cell binding dose curves were generated using Hela cells and CHO cells expressing human MSLN. […]

EC50 [nM] | Binder
2.6 | B2
15.6 | B3

Each binder was assayed against T1, human mesothelin (MSLN) on cells (assay: flow cytometry, supernatant diluted 1:5, CHO cells expressing human MSLN).
Method: Pelleted CHO cells were resuspended in flow buffer (1× phosphate buffered saline (PBS), 1% bovine serum albumin (BSA), and 0.1% NaN₃) at 1.25×10⁶ cells/mL. Antibody containing supernatants were diluted 1:5 in flow buffer, and 40 μL cells plus 10 μL diluted antibody supernatant were incubated for 30 minutes at 4° C. Cells were washed with flow buffer and resuspended in 50 μL phycoerythrin (PE)-conjugated secondary antibody (Southern Biotech #2042-09) diluted in flow buffer to 1.25 μg/mL and incubated for 20 minutes at 4° C. After two wash steps, cells were resuspended in flow buffer and analyzed using a Guava easyCyte 8HT system. Table E1 summarizes the target binding activity of the anti-MSLN single domain antibodies as fold over background mean fluorescence intensity (MFI) signal.

fold over background mean fluorescence intensity (MFI) [fold over background] | Binder
294 | B4
508 | B1
313 | B5
285 | B6
227 | B7
277 | B8
356 | B9
281 | B10
477 | B11
400 | B12
373 | B13
429 | B14
404 | B15
160 | B16
378 | B17
405 | B18
381 | B19
662 | B2
540 | B20
246 | B3
